Source: patent publication US7057012B1, “PTH functional domain conjugate peptides, derivatives thereof and novel tethered ligand-receptor molecules” (The General Hospital Corporation, priority 1998, dated 2006)
Where two headings read alike, the source gives them in different places. No end group written: not given here.

Columns and labels:
[1] = molecular target: T1, human PTH-1 receptor (Homo sapiens, UniProt Q03431); test: cAMP accumulation in COS cells expressing the human PTH-1 receptor; assay type: cell-based; details: for cAMP accumulation as compared to basal levels in un-stimulated cells: 60 min at 21° C.
T1 sequence (Q03431 27-593): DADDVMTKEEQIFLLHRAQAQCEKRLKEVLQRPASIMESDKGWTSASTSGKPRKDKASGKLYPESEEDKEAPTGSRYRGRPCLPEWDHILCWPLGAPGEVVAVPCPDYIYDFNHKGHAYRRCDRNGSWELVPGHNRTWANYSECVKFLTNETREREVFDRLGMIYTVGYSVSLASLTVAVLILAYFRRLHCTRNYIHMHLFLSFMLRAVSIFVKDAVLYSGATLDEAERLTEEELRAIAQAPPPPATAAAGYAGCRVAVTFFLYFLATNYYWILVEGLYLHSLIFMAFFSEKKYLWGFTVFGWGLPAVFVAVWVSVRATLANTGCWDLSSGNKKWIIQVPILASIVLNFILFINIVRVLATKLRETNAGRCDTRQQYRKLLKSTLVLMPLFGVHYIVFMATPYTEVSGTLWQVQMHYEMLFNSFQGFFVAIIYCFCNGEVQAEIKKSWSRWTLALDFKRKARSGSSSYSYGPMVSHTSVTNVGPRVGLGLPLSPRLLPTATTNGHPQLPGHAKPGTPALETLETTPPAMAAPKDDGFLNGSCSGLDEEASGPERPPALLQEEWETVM
Description: Intracellular cAMP accumulation is measured as described previously (Abou-Samra et al., J. Biol. Chem. 262:1129, 1986). Cells grown in 24-well plates are rinsed with culture medium containing 0.1% BSA and 2 mM IBMX. The cells are then incubated with an S-(L)n-B compound or derivatives thereof for 60 min. at 21° C. The supernatant is removed and the cells immediately frozen by placing the whole plate in dry ice powder. Intracellular cAMP is extracted by thawing the cells in 1 ml of 50 mM HCl and analyzed by a specific radioimmunoassay using an anti-cAMP antibody (e.g., Sigma, St. Louis, Mo.). A cAMP analog (2′-O-monosuccinyl-adenosine 3′:5′-cyclic monophosphate tyrosyl methyl ester, obtained from Sigma) which is used a tracer for cAMP is iodinated by the chloramine T method. Free iodine is removed by adsorbing the iodinated cAMP analog onto a C18Sep-pak cartridge (Waters, Milford, Mass.). After washing with dH20, the iodinated cAMP analog is eluted from the Sep-pak Cartridge with 40% acetonitrille (ACN) and 0.1% trifluoroacetic acid (TFA). The iodinated cAMP analog is lyophilized, reconstituted in 1 ml 0.1% TFA, and injected into a C18 reverse phase HPLC column (Waters). The column is equilibrated with 10% ACN in 0.1% TFA, and eluted with gradient of 10–30% ACN in 0.1% TFA. This allows separation of the mono-iodinated cAMP analog from the non-iodinated cAMP analog. The tracer is stable for up to 4 months when stored at −20° C. The standard used for the assay, adenosine 3′:5′-cyclic monophosphate, may be purchased from Sigma. Samples (1–10 µl of HCl extracts) or standards ([…]) are diluted in 50 Mm Na-acetate (pH 5.5), and acetylated with 10 μl of mixture of triethylamine and acetic anhydride (2:1 vol:vol). After acetylation, cAMP antiserum (100 μl) is added from a stock solution (1:4000) made in PBS (pH 7.4), 5 mM EDTA and 1% normal rabbit serum. The tracer is diluted in PBS (pH 7.4) with 0.1% BSA, and added (20,000 cpm/tube). The assay is incubated at 4° C. overnight. […] The supernatant is removed and the bound radioactivity is counted in a gamma-counter (Micromedic). […]
In order to screen for agonist activity, functional domain conjugate peptides of the invention were utilized in in vitro assays designed to measure cellular response via cAMP accumulation. Intracellular cAMP accumulation is measured as described previously (Abou-Samra et al., J. Biol. Chem. 262:1129, 1986).
Cells grown in 24-well plates are rinsed with culture medium containing 0.1% BSA and 2 mM IBMX. […] Intracellular cAMP is extracted by thawing the cells in 1 ml of 50 mM HCl and analyzed by a specific radioimmunoassay using an anti-cAMP antibody (e.g., Sigma, St. Louis, Mo.). […]

[2] = molecular target: T2, truncated PTH receptor (Rattus norvegicus, UniProt P25961); details: cited from earlier work
T2 sequence (P25961 with tags, fused parts or gaps): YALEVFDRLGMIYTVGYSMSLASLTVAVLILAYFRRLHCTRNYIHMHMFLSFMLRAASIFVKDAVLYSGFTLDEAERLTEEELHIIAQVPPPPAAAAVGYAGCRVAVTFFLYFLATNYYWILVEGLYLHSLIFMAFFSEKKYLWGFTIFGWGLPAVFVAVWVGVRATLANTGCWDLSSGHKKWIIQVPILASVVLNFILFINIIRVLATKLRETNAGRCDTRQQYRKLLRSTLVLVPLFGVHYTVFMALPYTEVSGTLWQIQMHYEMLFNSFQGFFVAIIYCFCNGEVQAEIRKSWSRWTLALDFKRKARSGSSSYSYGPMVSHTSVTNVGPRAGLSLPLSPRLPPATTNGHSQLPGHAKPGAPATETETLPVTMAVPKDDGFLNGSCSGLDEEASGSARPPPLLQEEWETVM

[3] = molecular target: T3, wildtype PTH receptor (Rattus norvegicus, UniProt P25961); details: read-out: EC50, cAMP formation, cited from earlier work
T3 sequence (P25961 27-591): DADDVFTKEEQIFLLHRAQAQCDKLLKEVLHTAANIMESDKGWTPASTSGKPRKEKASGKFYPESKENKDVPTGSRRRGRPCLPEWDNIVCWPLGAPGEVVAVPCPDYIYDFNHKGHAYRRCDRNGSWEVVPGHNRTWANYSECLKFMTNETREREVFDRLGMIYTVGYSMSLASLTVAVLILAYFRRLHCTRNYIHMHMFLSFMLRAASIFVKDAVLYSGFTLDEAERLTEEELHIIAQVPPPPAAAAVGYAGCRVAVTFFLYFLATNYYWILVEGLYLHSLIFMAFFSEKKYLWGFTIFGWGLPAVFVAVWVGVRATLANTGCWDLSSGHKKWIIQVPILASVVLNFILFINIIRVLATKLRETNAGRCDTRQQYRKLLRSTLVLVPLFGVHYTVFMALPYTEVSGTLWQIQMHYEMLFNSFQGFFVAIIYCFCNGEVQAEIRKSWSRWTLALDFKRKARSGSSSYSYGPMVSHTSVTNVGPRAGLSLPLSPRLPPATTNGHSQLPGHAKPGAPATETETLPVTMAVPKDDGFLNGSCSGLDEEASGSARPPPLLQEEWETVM

PTH (1–5)-(Gly)9-PTH(15–31) (AVSEIGGGGGGGGGLNSMERVEWLRKKLQDV; modified PTH sequence) [PG9, S-(L)n-B peptide: PTH(1–5), linker (Gly)9, PTH(15–31)]
cAMP accumulation as compared to basal levels in un-stimulated cells [1]: increased levels of cAMP accumulation

PTH (1–9)-(Gly)7-PTH(17–31) (AVSEIQLMHGGGGGGGSMERVEWLRKKLQDV; modified PTH sequence) [PG7, S-(L)n-B peptide: PTH(1–9), linker (Gly)7, PTH(17–31)]
cAMP accumulation as compared to basal levels in un-stimulated cells [1]: increased levels of cAMP accumulation

PTH(1–9)-(Gly)5-PTH(15–31) (AVSEIQLMHGGGGGLNSMERVEWLRKKLQDV; modified PTH sequence) [PG5, S-(L)n-B peptide: PTH(1–9), linker (Gly)5, PTH(15–31)]
cAMP accumulation as compared to basal levels in un-stimulated cells [1]: increased levels of cAMP accumulation

PTH(1–14) (AVSEIQLMHNLGKH; not fully specified (C-terminus); listed as Homo sapiens) [N-terminal fragment (1–14) of parathyroid hormone]
EC50 ([2]; read-out: EC50, cAMP formation): ~100 µM | EC50 ([3]; intact receptor): ~100 µM

PTH(1–34)
potency, cAMP formation [2]: severly diminished | EC50 ([3]; wildtype receptor): ~0.003 µM

[Ala^1] PTH(1–14)
bioactivity over the background level of bioactivity of the native PTH(1–14) peptide ([1]; serine at position one replaced by alanine): measurable increase in bioactivity
